Laboratory results as given in patent EP4671274A1.

Molecular target: recombinant His-tagged canine interleukin-13 (cIL-13) (canine) (UniProt Q9N0W9)
Assay: cell-based or functional assay

Chain of recombinant His-tagged canine interleukin-13 (cIL-13) (canine) (Q9N0W9 other isoform, or with tags, fused parts or gaps): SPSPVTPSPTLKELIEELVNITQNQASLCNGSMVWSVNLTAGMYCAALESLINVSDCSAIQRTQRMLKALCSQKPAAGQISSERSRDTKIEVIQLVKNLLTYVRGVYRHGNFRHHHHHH

B1: mouse monoclonal antibody 32A10-#20 (antibody, from another filing, V domains shown)
VH: EVQLQQSGPELVKPGASVKVSCKTSGYSFTDYPIYWVRQSHGESLEWIGYIDPYNGGTTYNQNFKDKATLTVDKSSSTAFMHLNSLTSEDSAVYFCATAVVATDVMENWGQGTSVTVSS
VL: DIVLTQSQKFMSTSVGDRVSITCKASQNVRNAVAWFQQKPGQSPKALIYLASNRYTGVPDHFTGSGSGTDFTLTISNVQSEDLADYFCLQHWNYPLTFGAGTKLELK
  IL-13-dependent TF-1 cell proliferation inhibition IC50: 2.9 to 4.2 nM
  Inhibitory Activity on TF-1 Cell Proliferation, IC50: 3.97 nM
